# Experimental data from patent US20170240648A1 (KOLLTAN PHARMACEUTICALS, published 2017).
# Where a chain is given by its changes, count along the chain named. Numbers in names are those of the source.
# B1: 2C2 Fab (Fab, V domains shown)
# VH: EVQLLESGGGLVQPGGSLRLSCAASGFTFSYYYMQWVRQAPGKGLEWVSYIGSSGGVTNYADSVKGRFTISRDNSKNTLYLQMNSLRAEDTAVYYCARVGLGDAFDIWGQGTMVTVSS
# VL: QSVLTQPPSASGTPGQRVTISCSGSLSNIGLNYVSWYQQLPGTAPKLLISRNNQRPSGVPDRFSGSKSGTSASLAISGLRSEDEADYYCAAWDDSPPGEAFGGGTKLTVL
# notes: Fab expressed in E. coli (pET26b, pelB signal peptide); also called Fab fragment of 2C2; Fab 2C2
# B2: 2C2 antibody (whole antibody used in the examples was 2C2-YTE) (antibody, V domains shown)
# VH: B1 VH
# VL: B1 VL
# notes: Whole anti-ErbB3 antibody of WO 2013/078191
# B3: S25H Fab (Fab, V domains shown)
# VH: B1 VH
# VL: B1 VL with S25H
# notes: 2C2 Fab variant with serine to histidine at residue 25 of the light chain (CDR1), made by QuikChange mutagenesis; also called S25H Fab antibody
# B4: S23R Fab (Fab, V domains shown)
# VH: B1 VH
# VL: B1 VL with S23R
# notes: 2C2 Fab variant with serine to arginine at residue 23 of the light chain (CDR1); also called S23R Fab antibody
# Assays:
# [1] = biological target: T1, ErbB3 domain III, His-tagged (human, UniProt P21860 329-521); assay: SPR (BIAcore T100, 25 C), 2C2 Fab immobilised on CM5 chip, ErbB3 domain III in flow
# T1 construct: also called purified domain III; D3; not shown: His tag
# [2] = biological target: T2, ErbB3 extracellular domain, His-tagged (human, UniProt P21860 20-643); assay: SPR (BIAcore T100, 25 C), 2C2 Fab immobilised on CM5 chip, ErbB3 ECD in flow
# T2 construct: Expressed in baculovirus-infected Sf9 cells and de-glycosylated for crystallography; also called ErbB3-ECD; ErbB3 ECD; not shown: C-terminal hexa-histidine tag, told in words only
# [3] = biological target: T3, cell-surface expressed ErbB3 (Homo sapiens (Human), UniProt P21860 20-1342); assay: flow cytometry, Alexa-647-labelled 2C2 titrated on BaF3 cells co-expressing ErbB2 and ErbB3, on ice; single-site binding isotherm
# T3 construct: also called HER3
# [4] = biological target: T4, ErbB3 domain II, His-tagged (human, UniProt P21860 202-328); assay: ELISA, His-tagged ErbB3 domain II coated on the plate, 2C2 titrated, HRP anti-human secondary antibody, chemiluminescence
# T4 construct: also called D2; not shown: His tag
# [5] = biological target: T5, ErbB3 domain IV, His-tagged (human, UniProt P21860 522-643); assay: ELISA, His-tagged ErbB3 domain IV coated on the plate, 2C2 titrated, HRP anti-human secondary antibody, chemiluminescence
# T5 construct: also called D4; not shown: His tag
# [6] = biological target: T1, ErbB3 domain III, His-tagged; assay: ELISA, His-tagged ErbB3 domain III coated on the plate, 2C2 titrated, HRP anti-human secondary antibody, chemiluminescence
# [7] = biological target: T6, ErbB3 domain I, His-tagged (human, UniProt P21860 20-201); assay: ELISA, His-tagged ErbB3 domain I coated on the plate, 2C2 titrated, HRP anti-human secondary antibody, chemiluminescence
# T6 construct: also called D1; not shown: His tag
# [8] = biological target: T2, ErbB3 extracellular domain, His-tagged; assay: SPR (BIAcore T100), Fab immobilised on a CM5 chip, ErbB3-ECD passed over in rising concentrations, long dissociation, 1:1 binding model
binder,measurement,setting,value
B1,Kd,[1],0.377 nM
same,Kd,[2],0.166 nM
B2,Kd,[3],0.08 nM
same,binding result,[4],no binding (tested: about 60 nM (log nM about 1.8))
same,binding result,[5],no binding (tested: about 60 nM (log nM about 1.8))
same,EC50 (read off the curve),[6],~0.5 nM
same,binding result,[7],no binding (tested: about 60 nM (log nM about 1.8))
B3,koff,[8],5.5e-05 s⁻¹
B4,koff,[8],8.3e-05 s⁻¹
